Source: patent US20240230671A9, “COMPOSITIONS AND METHODS FOR IDENTIFICATION OF CROSS-REACTIVE ALLERGENIC PROTEINS AND TREATMENT OF ALLERGIES” (Alladapt Immunotherapeutics, Inc., priority 2021, published 2024)
One block for each molecule: values may come before it.

How the values were obtained:
dendritic cells = assay: Mouse study: CD4+ T cells from peptide-dosed mice incubated with antigen-loaded dendritic cells; type: cell-based; settings: 50 ug peptide orally for 4 weeks; tetanus toxoid as control
Experimental: Mouse Study: A composition comprising 50 ug of the cross-reactive peptide comprising the MHC-II-binding T-cell epitope 5′-[…]-3′ and a pharmaceutical acceptable carrier is administered orally to mice for 4 weeks. Two weeks after the last dose, blood is drawn from a peripheral vein and CD4+ T cells are purified by cell sorting on magnetic beads. CD4+ T-cells are added to culture medium in which histocompatible dendritic cells, used as antigen presenting cells, are incubated with either the peptide sequence or with tetanus toxoid as a control for 2 hr at room temperature. The cells are then washed and purified CD4+ T-cells are added to culture medium. […] Incubation of CD4+ T-cells with dendritic cells loaded with the hazelnut Cor_i_9 antigen results in dendritic cell apoptosis.

[1] = Single allergen subcutaneous immunotherapy in walnut and hazelnut allergic subjects; type: in vivo
IgE = assay: ALEX2 chip ELISA-based multiplex assay for IgE binding to allergens; set-up: species or system human
Description: In another example, forty-two human serum samples with self-reported clinical allergies were obtained and analyzed in triplicate on an ALEX2 chip (developed by Macro Array Diagnostics), which enables an ELISA-based multiplex assay for the detection of IgE adsorption to allergen components and extracts. […] The assay detects the binding of IgE to these allergens in an ELISA-based multiplex fashion. The dynamic range of the chip spans a little over two orders of magnitude, 0.3-50 kUA/L.

Molecule: HWNLNAHSVVYALRG
apoptosis of antigen-presenting dendritic cells by CD4+ T cells (dendritic cells): induce apoptosis of dendritic cells presenting the Cor_i_9 antigen
allergic reaction after immunotherapy [1]: fail to react to both walnuts and hazelnuts

B3: Mal d 1: Apple allergen, Bet v 1 family, on ALEX2 chip (protein, UniProt P43211 2-159, looked up)
Major allergen Mal d 1: GVYTFENEFTSEIPPSRLFKAFVLDADNLIPKIAPQAIKQAEILEGNGGPGTIKKITFGEGSQYGYVKHRIDSIDEASYSYSYTLIEGDALTDTIEKISYETKLVACGSGSTIKSISHYHTKGNIEIKEEHVKVGKEKAHGLFKLIESYLKDHPDAYN
Pearson Correlation coefficient based on ALEX data (IgE; Bet v 1 family, correlation of IgE levels with Bet v 1, 22 Bet v 1-positive human serum samples): 0.62

More lines, now with the values ahead:

Pearson Correlation coefficient based on ALEX data (IgE; Tropomyosin family, correlation of IgE levels with Penm1): 0.99
B1: Derp: European house dust mite allergen, Tropomyosin family, on ALEX2 chip (protein, UniProt O18416 1-284, looked up)
Tropomyosin: MEAIKNKMQAMKLEKDNAIDRAEIAEQKARDANLRAEKSEEEVRALQKKIQQIENELDQVQEQLSAANTKLEEKEKALQTAEGDVAALNRRIQLIEEDLERSEERLKIATAKLEEASQSADESERMRKMLEHRSITDEERMEGLENQLKEARMMAEDADRKYDEVARKLAMVEADLERAEERAETGESKIVELEEELRVVGNNLKSLEVSEEKAQQREEAHEQQIRIMTTKLKEAEARAEFAERSVQKLQKEVGRLEDELVHEKEKYKSISDELDQTFAELTGY
modifications: tropomyosin
notes: European house dust mite allergen, Tropomyosin family, on ALEX2 chip

samples with a positive value for the allergen (IgE; of forty two human serum samples run on the ALEX2 chip): 22 samples
B2: Bet v 1: Silver birch allergen, Bet v 1 family, recombinant allergen on ALEX2 chip (protein)
chain: GVFNYETETTSVIPAARLFKAFILDGDNLFPKVAPQAISSVENIEGNGGPGTIKKISFPEGFPFKYVKDRVDEVDHTNFKYNYSVIEGGPIGDTLEKISNEIKIVATPDGGSILKISNKYHTKGDHEVKAEQVKASKEMGETLLRAVESYLLAHSDAYN
